Data on 5 molecules can be found in US20260258388A1 (REGENTS OF THE UNIVERSITY OF MICHIGAN, published 2026).

As usually defined, the Kd is the concentration at which binding is half-saturated.

The target of test [1] is Ly76 (Ter119 antigen) on mouse red blood cells (mouse). The test can be described thus: binding assay using mouse RBC ghosts.
Test [2] shares this target. The test can be described thus: cell-based or functional assay.
For test [3] the target is unchanged. In words: 125I-labelled protein injected in mice; radioactivity in RBC pellet vs plasma 1 hour after injection.
The target is the same in test [4]. The test can be described thus: binding assay on mouse RBCs.
Test [5] concerns the target T1, human FcγRIIA (human, UniProt P12318 34-317).
T1 construct: whole, on cells; also called hFcγRIIA; platelet FcγRIIA
T1 sequence (looked up): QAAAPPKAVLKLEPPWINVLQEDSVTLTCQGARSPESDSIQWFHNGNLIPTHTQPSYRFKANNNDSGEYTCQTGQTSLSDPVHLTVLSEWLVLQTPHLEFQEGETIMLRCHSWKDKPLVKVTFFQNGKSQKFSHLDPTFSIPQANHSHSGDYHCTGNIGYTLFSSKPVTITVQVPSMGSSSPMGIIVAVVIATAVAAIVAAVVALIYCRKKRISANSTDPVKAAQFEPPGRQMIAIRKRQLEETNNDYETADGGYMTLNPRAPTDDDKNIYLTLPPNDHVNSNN
In words: flow cytometry, human platelets. (In flow cytometry, cells or beads pass a laser one at a time.)

The target in test [6] is T1, human FcγRIIA. The test can be described thus: flow cytometry, THP-1 cells.
In test [7] the target is T1, human FcγRIIA. The test can be described thus: flow cytometry, washed platelets of transgenic mice expressing human FcγRIIA.
The target in test [8] is T1, human FcγRIIA. The test can be described thus: flow cytometry, human platelets, His-tagged protein detected with Alexa 488 anti-His antibody.

In the case of Ter119 scFv-IdeS fusion protein, the Kd is 26 nM in test [1] and 25 nM in test [4]. In addition, in test [2], the inhibition of agglutination of mouse RBCs loaded with Ter119 mAb came out at 1.25 nM. In addition, the percent bound to RBCs in blood in test [3] was above 98%.

Ter119 scFv yielded a Kd in test [1] of 30 nM.

B1: scIV.3-LPETGG-FAM (scFv)
scFv: QVQLVQSGAEVKKPGASVKVSCKASGYTFTNYGMNWVRQAPGQRLEWMGWLNTYTGESWYPDDFKGRVTITRDTSASTAYMELSSLRSEDTAVYYCARGDYGYDDPLDYWGQGTLVTVSSGAGGSGGGGSGGGGSGGGGSDIVMTQSPLSLPVTPGEPASISCRSSKSLLHTNQNTYLHWFLQKPGQSPQLLIYRMSVLASGVPDRFSGSGSGTDFTLKISRVEAEDVGVYYCMQHLEYPLTFGQGTKLEIKR
modifications: FAM-containing peptide attached site-specifically to the C-terminal sortag (LPET) by sortase
notes: Single chain variable fragment of monoclonal antibody IV.3, C-terminally modified with a FAM peptide by sortase; also called scIV.3-FAM; FAM-conjugated scIV.3; not shown: short semi-rigid linker, sortag LPET and the FAM-containing peptide joined by sortase
On to B1, for which the values for the dissociation constant Kd with human FcγRIIA [5], with human FcγRIIA [6] and with human FcγRIIA [7] were 1 nM, 11 nM and 0.27 nM, respectively.

B2: scIV.3-IdeS (scFv)
chain: QVQLVQSGAEVKKPGASVKVSCKASGYTFTNYGMNWVRQAPGQRLEWMGWLNTYTGESWYPDDFKGRVTITRDTSASTAYMELSSLRSEDTAVYYCARGDYGYDDPLDYWGQGTLVTVSSGAGGSGGGGSGGGGSGGGGSDIVMTQSPLSLPVTPGEPASISCRSSKSLLHTNQNTYLHWFLQKPGQSPQLLIYRMSVLASGVPDRFSGSGSGTDFTLKISRVEAEDVGVYYCMQHLEYPLTFGQGTKLEIKRGSSSGLPETGGGSSDSFSANQEIRYSEVTPYHVTSVWTKGVTPPANFTQGEDVFHAPYVANQGWYDITKTFNGKDDLLCGAATAGNMLHWWFDQNKDQIKRYLEEHPEKQKINFNGEQMFDVKEAIDTKNHQLDSKLFEYFKEKAFPYLSTKHLGVFPDHVIDMFINGYRLSLTNHGPTPVKEGSKDPRGGIFDAVFTRGDQSKLLTSRHDFKEKNLKEISDLIKKELTEGKALGLSHTYANVRINHVINLWGADFDSNGNLKAIYVTDSDSNASIGMKKYFVGVNSAGKVAISAKEIKEDNIGAQVLGLFTLSTGQDSWNQTNHHHHHH
notes: also called IV.3-IdeS conjugate; His-tagged scIV.3-IdeS
B2 displayed a dissociation constant Kd in the test with human FcγRIIA [8] of 1.3 nM.

B3: scIV.3 (single-chain variable fragment of IV.3, scIV.3-LPETGG) (scFv)
scFv: QVQLVQSGAEVKKPGASVKVSCKASGYTFTNYGMNWVRQAPGQRLEWMGWLNTYTGESWYPDDFKGRVTITRDTSASTAYMELSSLRSEDTAVYYCARGDYGYDDPLDYWGQGTLVTVSSGAGGSGGGGSGGGGSGGGGSDIVMTQSPLSLPVTPGEPASISCRSSKSLLHTNQNTYLHWFLQKPGQSPQLLIYRMSVLASGVPDRFSGSGSGTDFTLKISRVEAEDVGVYYCMQHLEYPLTFGQGTKLEIKRGSSSGLPETGGGHHHHHH
notes: also called His-tagged scIV.3; IV.3 scFv
In the test with human FcγRIIA [8], B3 registered a Kd of 0.9 nM. This Kd and that of the molecule before are within 1.5-fold of each other.
